# Experimental data published in patent US20260232824A1 (CHAMPIONS ONCOLOGY, published 2026).
# Positions count from the first letter of the chain named.
# T1: human CD180/human MD-1 on HEK293 cells (human, UniProt Q99467 24-661; O95711 21-162)
# T1 construct: whole, on cells; Complex co-expressed on HEK293 cells; also called HEK293 expressing CD180/MD-1; HEK293 CD180/MD-1 cells
# T1 sequence (looked up) 1: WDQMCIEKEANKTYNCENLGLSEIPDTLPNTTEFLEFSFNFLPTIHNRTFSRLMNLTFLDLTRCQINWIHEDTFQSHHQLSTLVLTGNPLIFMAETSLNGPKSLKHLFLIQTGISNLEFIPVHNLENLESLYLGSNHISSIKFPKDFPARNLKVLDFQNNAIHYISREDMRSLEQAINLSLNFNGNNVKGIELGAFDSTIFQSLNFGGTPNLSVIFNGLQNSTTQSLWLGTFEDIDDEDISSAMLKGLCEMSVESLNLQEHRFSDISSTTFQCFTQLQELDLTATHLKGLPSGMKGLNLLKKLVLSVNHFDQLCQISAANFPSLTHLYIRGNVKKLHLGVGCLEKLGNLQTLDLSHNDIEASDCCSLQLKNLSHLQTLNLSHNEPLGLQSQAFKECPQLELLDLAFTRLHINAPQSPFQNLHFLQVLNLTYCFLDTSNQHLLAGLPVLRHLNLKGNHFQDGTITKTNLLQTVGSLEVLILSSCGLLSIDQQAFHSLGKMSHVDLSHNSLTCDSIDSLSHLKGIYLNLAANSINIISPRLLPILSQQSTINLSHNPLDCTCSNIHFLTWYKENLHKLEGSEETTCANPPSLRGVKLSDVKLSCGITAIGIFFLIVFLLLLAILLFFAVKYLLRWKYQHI
# T1 sequence (looked up) 2: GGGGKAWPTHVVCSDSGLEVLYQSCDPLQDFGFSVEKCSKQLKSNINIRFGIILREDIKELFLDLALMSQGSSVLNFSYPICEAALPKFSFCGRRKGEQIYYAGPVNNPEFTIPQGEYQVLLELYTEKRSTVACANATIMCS
# T2: human MD-1 on HEK293 cells (human, UniProt O95711 21-162)
# T2 construct: whole, on cells; also called HEK293 expressing MD-1 only; MD-1 cells
# T2 sequence (looked up): T1 sequence (looked up) 2
# T3: human CD180 extracellular domain (ECD) HIS-tagged protein (Sino Biological, 11370-H08H) (human, UniProt Q99467 24-626)
# T3 construct: extracellular domain; Bought protein; also called soluble human CD180 from Sino Biologics; human CD180(ECD)-HIS; not shown: His tag
# T3 sequence (looked up): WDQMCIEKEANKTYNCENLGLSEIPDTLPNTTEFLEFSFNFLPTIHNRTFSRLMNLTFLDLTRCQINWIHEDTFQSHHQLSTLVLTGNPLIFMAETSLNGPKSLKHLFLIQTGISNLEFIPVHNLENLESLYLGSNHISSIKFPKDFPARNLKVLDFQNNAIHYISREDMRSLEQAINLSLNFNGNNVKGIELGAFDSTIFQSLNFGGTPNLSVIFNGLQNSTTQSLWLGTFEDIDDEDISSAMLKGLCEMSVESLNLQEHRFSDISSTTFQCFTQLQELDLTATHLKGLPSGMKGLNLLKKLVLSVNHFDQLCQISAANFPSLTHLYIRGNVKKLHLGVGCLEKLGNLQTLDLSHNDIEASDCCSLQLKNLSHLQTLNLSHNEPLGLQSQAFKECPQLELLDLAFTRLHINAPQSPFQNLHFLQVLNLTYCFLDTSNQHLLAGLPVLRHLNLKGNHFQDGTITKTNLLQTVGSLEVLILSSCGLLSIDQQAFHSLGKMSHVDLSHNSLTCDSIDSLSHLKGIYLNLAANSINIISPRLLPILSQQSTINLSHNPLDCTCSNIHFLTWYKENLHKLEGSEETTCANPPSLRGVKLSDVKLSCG
# T4: human CD180 extracellular domain (ECD) HIS-tagged protein (Creative Biomart, CD180-3900H) (human, UniProt Q99467 24-626)
# T4 construct: extracellular domain; Bought protein; also called soluble human CD180 from Creative Biomart; not shown: His tag
# T4 sequence (looked up): T3 sequence (looked up)
# B1: Ab-014 (antibody, human IgG1, kappa, V domains shown)
# VH: EVQLVESGGGLVQPGRSLRLSCTTSGFTFADYAMHWVRQTPGKGLEWVSGISWNGVTIDYADSVKGRFTISRDIAKNSLYLQMNSLRAEDTALYYCAKDIAYSRGYFQHWGQGTLVTVSS
# VL: not shown
# notes: also called CHAMPmAB-014
# B2: Ab-007 (antibody, human IgG1, kappa, V domains shown)
# VH: EVQLVESGGGVVRPGGSLRLSCAASGFTFDDYAMSWVRQAPGKGLEWVSDINWNGGTTSYADSVKGRFTISRDNAKNSLFLQMNSLRAEDTALYYCARKGRDTVVVKGYYYFSYYMDVWGKGSTVTVSS
# VL: not shown
# notes: also called ChampmAb-007; Champ mAb-007
# B3: Ab-008 (antibody, human IgG1, kappa, V domains shown)
# VH: B1 VH with K43Q, V56G, I58M, D59G
# VL: DIQMTQSPSSLSASVGDRVTITCRASQGIRNDLGWYQQKPGKAPKLLIYAASTLQSGVPSRFSGSGSGTDFTLTISSLQPEDVATYYCQKYNSAPFTFGPGTKVDIKR
# B4: Ab-016 (antibody, human IgG1, kappa, V domains shown)
# VH: B1 VH with V56G, D59G
# VL: not shown
# B5: Ab-012 (antibody, human IgG1, kappa, V domains shown)
# VH: B1 VH with K43Q, V56G, I58M, D59G
# VL: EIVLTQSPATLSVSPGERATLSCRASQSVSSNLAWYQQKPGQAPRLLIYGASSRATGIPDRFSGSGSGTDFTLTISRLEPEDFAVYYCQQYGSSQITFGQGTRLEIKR
# B6: Ab-017 (antibody, human IgG1, kappa, V domains shown)
# VH: B1 VH with K43Q, V56G, I58M, D59G
# VL: not shown
# B7: Ab-010 (antibody, human IgG1, kappa, V domains shown)
# VH: B1 VH with R16G, T24S, V56G, I58F, A88V
# VL: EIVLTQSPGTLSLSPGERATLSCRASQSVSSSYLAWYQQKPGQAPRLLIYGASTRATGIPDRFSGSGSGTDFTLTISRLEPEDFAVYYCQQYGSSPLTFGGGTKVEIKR
# B8: Ab-006 (antibody, human IgG1, kappa, V domains shown)
# VH: EVQLVESGGGLVKPGGSLRLSCTASGFTFDDYDMTWVRQAPGKGLEWVSGINWNGGNTDYADSVKGRFTISRDNTKNSLYLQMNSLRAEDTALYYCARKGRDIVVVKGFYYHYYYMDVWGKGITVTVSS
# VL: not shown
# notes: also called ChampmAb-006; Champ mAb-006
# B9: Ab-005 (antibody, human IgG1, kappa, V domains shown)
# VH: B1 VH with R16G, V56G, D59G
# VL: not shown
# B10: Ab-004 (antibody, human IgG1, kappa, V domains shown)
# VH: B1 VH with R16G
# VL: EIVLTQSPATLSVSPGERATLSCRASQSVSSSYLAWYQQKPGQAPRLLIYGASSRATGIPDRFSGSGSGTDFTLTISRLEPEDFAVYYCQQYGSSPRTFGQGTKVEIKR
# notes: also called CHAMPmAB-004
# B11: Ab-003 (antibody, human IgG1, kappa, V domains shown)
# VH: B1 VH with K43Q, V56G, I58M, D59G
# VL: not shown
# B12: Ab-002 (antibody, human IgG1, kappa, V domains shown)
# VH: EVQLVESGGGLVQPGGSLRLSCAASGFTSVDYAMHWVRQAPGKGLEWVSYISWNNNNIGYADSVKGRFTISRDNAKNSLYLHMSSLRAEDTALYYCAKDIAYNTGYFDYWGQGTLVTVSS
# VL: not shown
# B13: Ab-009 (antibody, human IgG1, kappa, V domains shown)
# VH: B1 VH
# VL: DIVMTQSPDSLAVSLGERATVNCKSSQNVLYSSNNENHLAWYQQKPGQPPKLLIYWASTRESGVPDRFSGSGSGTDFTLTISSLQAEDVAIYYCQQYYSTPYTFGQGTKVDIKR
# Molecular target: T1, human CD180/human MD-1 on HEK293 cells
# Experiment: cell binding on HEK293 CD180/MD-1 cells (FIG. 14G)
# Procedure: Cells were then incubated with the secondary antibody R-Phycoerythrin AffiniPure Goat Anti-Human IgG (Jackson Immunoresearch 109-115-098). The data was acquired on Intellicyt iQue3 VBR. Median fluorescence intensities (MFI) were plotted against the concentrations of the anti-CD180 antibodies.
row,EC50,Binder
1,4 nM,B1

# Molecular target: T1, human CD180/human MD-1 on HEK293 cells
# Experiment: cell-based ELISA / flow cytometry, HEK293 expressing CD180/MD-1, 100 nM and 30 nM
# Procedure: (§1) FIGS. 1A-IC show the cell binding properties of the anti-CD180 antibodies. All CHAMP mAbs were subjected to binding assays via cell-based ELISA. FIG. 1A: Antibodies were screened at […] and 30 nM in a cell-based ELISA using HEK293 expressing CD180/MD-1. […] P84, mouse IgG, and 2nd only mouse were negative controls. […] FIG. 1B: Antibodies were screened at […] in cell-based ELISA using HEK293 expressing MD-1 only. […] FIG. 1C: Antibodies were screened at […] in cell-based ELISA using HEK293 parental cell line.
# (§2) All mAbs were subjected to cell binding screen detected on a flow cytometer. Engineered cells expressing CD180/MD-1, MD-1, or parental HEK cells were used to test for binding of the antibodies. Antibodies at a concentration of 100 nM or 30 nM were incubated with cells at 4° C. for 45 min. R-Phycoerythrin AffiniPure Goat Anti-Human IgG (Jackson Immunoresearch 109-115-098) was used as the secondary antibody. The binding of antibodies on cells were detected on Intellicyt iQue3 VBR.
row,binding result,Binder
1,binds,B2
2,binds,B3
3,binds,B4
4,binds,B5
5,binds,B6
6,binds,B7

# Molecular target: T1, human CD180/human MD-1 on HEK293 cells
# Experiment: cell binding screen by flow cytometry, cells expressing CD180/MD-1, 100 nM or 30 nM
# Procedure: as §1, §2
row,binding result,Binder
1,binds,B8
2,binds,B9
3,binds,B10
4,binds,B11
5,binds,B12

# Molecular target: T2, human MD-1 on HEK293 cells
# Experiment: cell binding screen by flow cytometry (called cell-based ELISA), HEK293 expressing MD-1 only
# Procedure: as §1, §2
row,binding result,Binder
1,no binding (tested: 100 nM),B2
2,no binding (tested: 100 nM),B8
3,no binding (tested: 100 nM),B3
4,no binding (tested: 100 nM),B4
5,no binding (tested: 100 nM),B13
6,no binding (tested: 100 nM),B5
7,no binding (tested: 100 nM),B9
8,no binding (tested: 100 nM),B6
9,no binding (tested: 100 nM),B10
10,no binding (tested: 100 nM),B1
11,no binding (tested: 100 nM),B11
12,no binding (tested: 100 nM),B7
13,no binding (tested: 100 nM),B12

# Molecular target: T3, human CD180 extracellular domain (ECD) …
# Experiment: SPR, antibody captured in a bivalent format, soluble human CD180 from Sino Biologics passed over (FIG. 3A)
# Procedure: (§3) FIGS. 3A-3C show intrinsic binding affinity of the antibodies as determined by Surface Plasmon Resonance (SPR) assay. Antibody was captured in a bivalent format and soluble human CD180 from Sino Biologics (FIG. 3A), Creative Biomart (FIG. 3B), or soluble rhesus CD180 (FIG. 3C) was passed over the captured antibody. […] Kon, koff and KD are indicated for each condition.
# (§4) Surface Plasmon Resonance (SPR) was used to identify intrinsic binding affinity. Kinetic experiments were performed on Carterra LSA with a running buffer of PBS pH 7.40, 1% BSA, 0.05% Tween20. Antibodies were captured on an anti-human Fc capture chip prepared with a HC30M chip. […] For each concentration, there was 5 min association followed by 15 min dissociation. Results were processed and analyzed in Carterra LSA Kinetics Software. The kinetic data was referenced with the interstitial reference spots and double-referenced to a buffer cycle, and then fit globally to a 1:1 binding model to determine their apparent association and dissociation kinetic rate constants (kₒₙ and koff values). The ratio koff/kₒₙ was used to derive the KD value of each antigen/mAb interaction, i.e., KD=koff/kₒₙ.
row,binding result,Binder
1,binds,B2
2,binds,B8

# Molecular target: T4, human CD180 extracellular domain (ECD) …
# Experiment: SPR, antibody captured in a bivalent format, soluble human CD180 from Creative Biomart passed over (FIG. 3B)
# Procedure: as §3, §4
row,binding result,Binder
1,binds,B2
2,binds,B8
